Measurements: patent publication US20110207628A1

How the values were obtained:
[1] = target: Axl-Fc (Axl extracellular domain fused to human IgG1 Fc fragment) (human); experiment: clonal phage on immobilized Axl-Fc, plaque assay
[2] = target: tubby-N (N-terminus of mouse tubby, 1M-242P), GST-free (mouse) (UniProt P50586); experiment: clonal phage on immobilized tubby-N, plaque assay
[3] = target: FLAG-tubby-F (full-length mouse tubby with N-terminal FLAG tag) (mouse) (UniProt P50586); experiment: clonal phage on immobilized FLAG-tubby-F, plaque assay
Sequence of FLAG-tubby-F (full-length mouse tubby with N-terminal FLAG tag) (mouse) (P50586 other isoform, or with tags, fused parts or gaps): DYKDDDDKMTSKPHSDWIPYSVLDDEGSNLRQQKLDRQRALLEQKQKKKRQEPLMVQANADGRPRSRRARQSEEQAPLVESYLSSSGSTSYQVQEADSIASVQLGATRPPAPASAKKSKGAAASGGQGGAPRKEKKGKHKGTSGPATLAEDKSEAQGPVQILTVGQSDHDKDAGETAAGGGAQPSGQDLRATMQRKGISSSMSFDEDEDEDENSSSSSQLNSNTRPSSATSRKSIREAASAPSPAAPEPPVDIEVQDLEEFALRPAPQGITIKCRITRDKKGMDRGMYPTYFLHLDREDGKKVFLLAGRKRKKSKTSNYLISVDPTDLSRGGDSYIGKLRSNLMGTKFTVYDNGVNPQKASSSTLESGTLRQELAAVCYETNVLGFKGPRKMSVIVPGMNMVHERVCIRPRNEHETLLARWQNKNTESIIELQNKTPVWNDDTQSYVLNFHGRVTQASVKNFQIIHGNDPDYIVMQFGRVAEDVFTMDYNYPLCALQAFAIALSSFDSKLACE

Sequence of tubby-N (N-terminus of mouse tubby, 1M-242P), GST-free (mouse) (P50586 1-242): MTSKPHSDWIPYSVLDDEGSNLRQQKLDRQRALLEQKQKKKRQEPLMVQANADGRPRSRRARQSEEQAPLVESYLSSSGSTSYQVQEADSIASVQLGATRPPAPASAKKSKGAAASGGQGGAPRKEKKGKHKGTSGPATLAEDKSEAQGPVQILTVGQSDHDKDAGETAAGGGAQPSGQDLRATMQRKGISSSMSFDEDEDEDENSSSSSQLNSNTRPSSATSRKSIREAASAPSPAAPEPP

Row | Substance | Binding activity (pfu ratio of clonal phage binding to immobilized Axl-Fc versus blank) [1] | Binding to tubby-N (binding specificity of clonal phage vs. control phage) [2] | Binding to tubby-F (binding specificity to FLAG-tubby-F vs. to GFP-FLAG) [3]
1 | PH180: Lectin, galactose binding, soluble 3 (Lgals3) 131Y-264I, phage clone (from UniProt P16110 131-264) | 1380 X (fold) | – | –
2 | High mobility group box 2-like 1 (Hmgb211) 170K-305G, phage clone | – | 29.8 X (fold) | 5 X (fold)
3 | Paf1/RNA polymerase II complex component (Rtf1) 69N-186K, phage clone (from UniProt A2AQ19 69-186) | – | – | 6.2 X (fold)
4 | Unknown protein encoded by Chromosome X Genomic contig, alternate assembly (NW_001035178, 7824017-7824523 bp), phage clone | – | 40.1 X (fold) | 3.1 X (fold)
